# Test results taken from patent US20030092037A1, “Elk1 phosphorylation related gene” (priority 2001, published 2003).
# B1: 50 (protein, listed as Homo sapiens)
# chain: MAKERRRAVLELLQRPGNARCADCGAPDPDWASYTLGVFICLSCSGIHRNIPQVSKVKSVRLDAWEEAQVEFMASHGNDAARARFESKVPSFYYRPTPSDCQLLREQWIRAKYERQEFIYPEKQEPYSAGYREGFLWKRGRDNGQFLSRKFVLTEREGALKYFNRNDAKEPKAVMKIEHLNATFQPAKIGHPHGLQVTYLKDNSTRNIFIYHEDGKEIVDWFNALRAARFHYLQVAFPGASDADLVPKLSRNYLKEGYMEKTGPKQTEGFRKRWFTMDDRRLMYFKDPLDAFARGEVFIGSKESGYTVLHGFPPSTQGHHWPHGITIVTPDRKFLFACETESDQREWVAAFQKAVDRPMLPQEYAVEAHFKHKP
# B2: 110 (protein, listed as Homo sapiens)
# chain: MERPLCSHLCSCLAMLALLSPLSLAQYDSWPHYPEYFQQPAPEYHQPQAPANVAKIQLRLAGQKRKHSEGRVEVYYDGQWGTVCDDDFSIHAAHVVCRELGYVEAKSWTASSSYGKGEGPIWLDNLHCTGNEATLAACTSNGWGVTDCKHTEDVGVVCSDKRIPGFKFDNSLINQIENLNIQVEDIRIRAILSTYRKRTPVMEGYVEVKEGKTWKQICDKHWTAKNSRVVCGMFGFPGERTYNTKVYKMFASRRKQRYWPFSMDCTGTEAHISSCKLGPQVSLDPMKNVTCENGLPAVVSCVPGQVFSPDGPSRFRKAYKPEQPLVRLRGGAYIGEGRVEVLKNGEWGTVCDDKWDLVSASVVCRELGFGSAKEAVTGSRLGQGIGPIHLNEIQCTGNEKSIIDCKFNAESQGCNHEEDAGVRCNTPAMGLQKKLRLNGGRNPYEGRVEVLVERNGSLVWGMVCGQNWGIVEAMVVCRQLGLGFASNAFQETWYWHGDVNSNKVVMSGVKCSGTELSLAHCRHDGEDVACPQGGVQYGAGVACSETAPDLVLNAEMVQQTTYLEDRPMFMLQCAMEENCLSASAAQTDPTTGYRRLLRFSSQIHNNGQSDFRPKNGRHAWIWHDCHRHYHSMEVFTHYDLLNLNGTKVAEGHKASFCLEDTECEGDIQKNYECANFGDQGITMGCWDMYRHDIDCQWVDITDVPPGDYLFQVVINPNFEVAESDYSNNIMKCRSRYDGHRIWMYNCHIGGSFSEETEKKFEHFSGLLNNQLSPQ
# B3: 112 (protein, listed as Homo sapiens)
# chain: METTFGPAFSAVTTITKADGTSTYKQHCRTPSSSSTLAYSPRDEEDSMPPISTPRRSDSAISVRSLHSESSMSLRSTFSLPEEEEEPEPLVFAEQPSVKLCCQLCCSVFKDPVITTCGHTFCRRCALKSEKCPVDNVKLTVVVNNIAVAEQIGELFIHCRHGCRVAGSGKPPIFEVDPRGCPFTIKLSARKDHEGSCDYRPVRCPNNPSCPPLLRMNLEAHLKECEHIKCPHSKYGCTFIGNQDTYETHLETCRFEGLKEFLQQTDDRFHEMHVALAQKDQEIAFLRSMLGKLSEKIDQLEKSLELKFDVLDENQSKLSEDLMEFRRDASMLNDELSHINARLNMGILGSYDPQQIFKCKGTFVGHQGPVWCLCVYSMGDLLFSGSSDKTIKVWDTCTTYKCQKTLEGHDGIVLALCIQGCKLYSGSADCTIIVWDIQNLQKVNTIRAHDNPVCTLVSSHNVLFSGSLKAIKVWDIVGTELKLKKELTGLNHWVRALVAAQSYLYSGSYQTIKIWDIRTLDCIHVLQTSGGSVYSIAVTNHHIVCGTYENLIHVWDIESKEQVRTLTGHVGTVYALAVISTPDQTKVFSASYDRSLRVWSMDNMICTQTLLRHQGSVTALAVSRGRLFSGAVDSTVKVWTC
# B4: 116 (protein, listed as Mus musculus)
# chain: MSSAKSARYDRFSGGPANLPSSDSSGTRMETTFGPTFSTVTTITKAADGTGTYKQHRRTPSSSSTLAYSPRDEEDGMEPLVFAEQPSVKLCCQLCCSVFKDPVITTCGHTFCRRCALKSEKCPVDNAKLTVVVNNIAVAEQIGELFIHCRHGCHAAGTGKPGVFEVDPRGCPFTIKLSARKDHESSCDYRPVRCPNNPSCPPLLKMNLEAHLKECEHIKCPHSKYGCTFIGNQDTYETHLETCRFEGLKEFLQQSDDRFHEMHVALAQKDQEIAFLRSMLGKLSEKINQLEKSLELKFDVLDENQSKLSEDLMEFRRDASMLNDELSHINARLNMGILGSYDPQQIFKCKGTFVGHQGPVWCLCVYSMGDLLFSGSSDKTIKVWDTCTTYKCQKTLEGHDGIVLALCIQGCKLYSGSADCTIIVWDIQNLQKVNTIRAHDNPVCTLVSSHNMLFSGSLKAIKVWDIVGTELKLKKELTGLNHWVRALVAAQSYLYSGSYQTIKIWDIRTLDCIHVLQTSGGSVYSIAVTNHHIVCGTYENLIHVWDIESKEQVRTLTGHVGTVYALAVISTPDQTKVFSASYDRSLRVWSMDNMICTQTLLRHQGSVTALAVSRGRLFSGAVDSTVKVWTC
# B5: 44 (protein, listed as Homo sapiens)
# chain: MEDEEVAESWEEAADSGEIDRRLEKKLKITQKESRKSKSPPKVPIVIQDDSLPAGPPPQIRILKRPTSNGVVSSPNSTSRPTLPVKSLAQREAEYAEARKRILGSASPEEEQEKPILDRPTRISQPEDSRQPNNVIRQPLGPDGSQGFKQRR
# B6: 60 (protein, listed as Homo sapiens)
# chain: MLGSGFKAERLRVNLRLVINRLKLLEKKKTELAQKARKEIADYLAAGKDERARIRVEHIIREDYLVEAMEILELYCDLLLARFGLIQSMKELDSGLAESVSTLIWAAPRLQSEVAELKIVADQLCAKYSKEYGKLCRTNQIGTVNDRLMHKLSVEAPPKILVERYLIEIAKNYNVPYEPDSVVMVPPQECERMGEALWEDHQRWLDSGREHVVKHPSLVLRFQT
# B7: 4 (protein, listed as Homo sapiens)
# chain: MSHEKSFLVSGDNYPPPNPGYPGGPQPPMPPYAQPPYPGAPYPQPPFQPSPYGQPGYPHGPSPYPQGGYPQGPYPQGGYPQGPYPQEGYPQGPYPQGGYPQGPYPQSPFPPNPYGQPQVFPGQDPDSPQHGNYQEEGPPSYYDNQDFPATNWDDKSIRQAFIRKVFLVLTLQLSVTLSTVSVFTFVAEVKGFVRENVWTYYVSYAVFFISLIVLSCCGDFRRKHPWNLVALSVLTASLSYMVGMIASFYNTEAVIMAVGITTAVCFTVVIFSMQTRYDFTSCMGVLLVSMVVLFIFAILCIFIRNRILEIVYASLGALLFTCFLAVDTQLLLGNKQLSLSPEEYVFAALNLYTDIINIFLYILTIIGRAKE
# B8: 68 (protein, listed as Homo sapiens)
# chain: MLKEEQEVAMLGVPHNPAPPMSTVIHIRSETSVPDHVVWSLFNTLSMNTCCLGFIAFAYSVKSRDRKMVGDVTGAQAYASTAKCLNIWALILGIFMTILLIIIPVLVVQAQR
# B9: 52 (protein, listed as Homo sapiens)
# chain: MAASRLELNLVRLLSRCEAMAAEKRDPDEWRLEKYVGALEDMLQALKVHASKPASEVINEYSWKVDFLKGMLQAEKLTSSSEKALANQFLAPGRVPTTARERVPATKTVHLQSRARYTSEMRSELLGTDSAEPEMDVRKRTGVAGSQPVSEKQSAAELDLVLQRHQNLQEKLAEEMLGLARSLKTNTLAAQSVIKKDNQTLSHSLKMADQNLEKLKTESERLEQHTQKSVNWLLWAMLIIVCFIFISMILFIRIMPKLK
# Test system: MAP kinase cascade activation
# Experiment: Reporter activity reflecting MAP kinase cascade activation, corrected using an internal control (Elk1-GAL4 luciferase reporter in 293-EBNA cells)
# Type: cell-based, human
# Conditions: for Reporter activity corrected with internal control, as a factor of null vector (S/B value): 293-EBNA cells, 24 hours; for Dependence of corrected reporter activity on amount of expression plasmid: plasmid 12.5 ng, 25 ng, 50 ng and 100 ng
# Method: (in the presence of 5% CO2). […] The method used for introduction was in accordance with the attached protocol. After culturing for 24 hours at 37° C., reporter activity (firefly luciferase acitivity), which reflects MAP kinase cascade activation, and reporter activity being the internal control (sea pansy luciferase) were measured using Picagene Dual (purchased from Toyo Ink Manufacturing) in accordance with the manufacturer's instructions.
# Luciferase activity was measured with Perkin Elmer's Wallac ARVOTMST 1420 MULTILABEL COUNTER.
# Reporter activity where an expression plasmid comprising the above gene was introduced, which reflects MAP kinase cascade activation corrected with internal control reporter activity, is shown in Table 1, which is expressed as a factor of the same reporter activity where a null vector was introduced (S/B value).
# [1] = 12.5 ng/well expression plasmid
Molecule,"Reporter activity corrected with internal control, as a factor of null vector (S/B value) (25 ng/well expression plasmid)","Reporter activity corrected with internal control, as a factor of null vector (S/B value) (50 ng/well expression plasmid)","Reporter activity corrected with internal control, as a factor of null vector (S/B value) (100 ng/well expression plasmid)",Dependence of corrected reporter activity on amount of expression plasmid,"Reporter activity corrected with internal control, as a factor of null vector (S/B value) [1]"
B1,2.3,4.3,3.8,increases that were dependent on the amount of expression plasmid,–
B2,3.4,4.7,–,increases that were dependent on the amount of expression plasmid,2.3
B3,2.2,3.1,–,increases that were dependent on the amount of expression plasmid,7.6
B4,17.3,19.9,–,increases that were dependent on the amount of expression plasmid,11.9
B5,9.1,55.4,64.5,increases that were dependent on the amount of expression plasmid,–
B6,2.0,2.6,4.2,increases that were dependent on the amount of expression plasmid,–
B7,2.1,4.1,4.5,increases that were dependent on the amount of expression plasmid,–
B8,2.3,4.0,7.3,increases that were dependent on the amount of expression plasmid,–
B9,2.3,3.6,5.4,increases that were dependent on the amount of expression plasmid,–
